Measurements from patent publication US20210054353, “NOVEL RNA-PROGRAMMABLE ENDONUCLEASE SYSTEMS AND USES THEREOF” (CRISPR THERAPEUTICS AG, published 2021).

Experiments:
Gib11 sRGN = target: T1, Gib11 sRGN (synthetic (Staphylococcus Cas9 chimera)); experiment: FP; cleavage; 5 mM MgCl2, 37 C; PAM GGGG on substrate; mismatch values only in figure
T1 chain: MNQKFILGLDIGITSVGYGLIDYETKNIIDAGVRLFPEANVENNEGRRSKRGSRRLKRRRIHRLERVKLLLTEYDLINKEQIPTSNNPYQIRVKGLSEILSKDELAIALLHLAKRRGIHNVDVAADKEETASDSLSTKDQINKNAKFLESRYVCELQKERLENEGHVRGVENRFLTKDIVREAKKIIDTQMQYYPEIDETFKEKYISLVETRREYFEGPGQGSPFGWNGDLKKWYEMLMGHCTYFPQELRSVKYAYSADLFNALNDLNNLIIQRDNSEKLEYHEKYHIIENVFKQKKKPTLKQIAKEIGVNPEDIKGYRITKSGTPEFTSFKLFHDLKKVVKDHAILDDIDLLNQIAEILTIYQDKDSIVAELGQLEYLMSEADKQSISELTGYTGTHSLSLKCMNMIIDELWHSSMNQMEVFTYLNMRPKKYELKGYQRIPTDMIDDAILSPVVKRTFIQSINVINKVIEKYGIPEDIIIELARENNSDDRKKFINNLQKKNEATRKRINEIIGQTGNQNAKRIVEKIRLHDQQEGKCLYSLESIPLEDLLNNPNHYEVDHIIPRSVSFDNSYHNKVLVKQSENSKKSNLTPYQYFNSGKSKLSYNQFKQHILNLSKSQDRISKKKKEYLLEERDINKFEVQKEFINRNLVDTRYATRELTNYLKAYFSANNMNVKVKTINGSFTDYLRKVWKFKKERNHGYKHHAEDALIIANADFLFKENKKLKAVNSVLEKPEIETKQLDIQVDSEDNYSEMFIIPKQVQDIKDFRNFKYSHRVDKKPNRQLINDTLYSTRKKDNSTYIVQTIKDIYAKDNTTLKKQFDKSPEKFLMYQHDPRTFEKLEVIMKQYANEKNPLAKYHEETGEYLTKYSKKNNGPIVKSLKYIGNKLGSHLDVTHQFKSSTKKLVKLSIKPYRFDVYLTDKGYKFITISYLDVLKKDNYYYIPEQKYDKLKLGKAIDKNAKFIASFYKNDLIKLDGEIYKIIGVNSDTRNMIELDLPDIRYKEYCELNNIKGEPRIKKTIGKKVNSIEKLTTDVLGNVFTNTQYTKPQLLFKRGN
Experimental: (§1) Oligonucleotide duplexes were prepared in 10 mM Tris (pH 7.8) 50 mM NaCl as 10 μM solutions (from 100 μM stocks) and annealed at 95° C. for 5 minutes then slowly cooled down in thermo cycler (6° C. per minute). The stocks were subsequently diluted in 10 mM Tris (pH 7.8), 50 mM NaCl, and 0.05% Pluronic. 20 μl of each oligonucleotide (20 nM) was immobilized on streptavidin coated plates, washed twice after 10 minutes and then incubated with a 20 μL sample for a kinetics of 60 minutes (excitation wavelength: 635 nm; emission wavelength: 670 nm). Prior to the cleavage the reaction RNP was formed. RNP was assembled by mixing 12.03 μl of the respective sRGN protein (1.21 μg/μl) in 3200 μl 1×PBS+5 mM MgCl₂ with and without sgRNA (SEQ ID NO: 128; 60 nM final concentration), RNPs were incubated 5 min at 37° C. prior to the reaction. 20 μl RNP was added to each well and the polarization was measured for 60 minutes at 37° C.
(§2) The cleavage kinetics were analyzed by calculating the initial slope of the oligonucleotide cleavage reaction. The slopes were calculated for each of the 61 substrates and normalized to the value of the on-target substrate (defined as 1). The normalized cleavage values for all 60 off-target substrates where then grouped according to their position. […]

E2 sRGN = target: T2, E2 sRGN (synthetic (Staphylococcus Cas9 chimera)); experiment: FP; cleavage; specificity profile comparable to SluCas9
T2 chain: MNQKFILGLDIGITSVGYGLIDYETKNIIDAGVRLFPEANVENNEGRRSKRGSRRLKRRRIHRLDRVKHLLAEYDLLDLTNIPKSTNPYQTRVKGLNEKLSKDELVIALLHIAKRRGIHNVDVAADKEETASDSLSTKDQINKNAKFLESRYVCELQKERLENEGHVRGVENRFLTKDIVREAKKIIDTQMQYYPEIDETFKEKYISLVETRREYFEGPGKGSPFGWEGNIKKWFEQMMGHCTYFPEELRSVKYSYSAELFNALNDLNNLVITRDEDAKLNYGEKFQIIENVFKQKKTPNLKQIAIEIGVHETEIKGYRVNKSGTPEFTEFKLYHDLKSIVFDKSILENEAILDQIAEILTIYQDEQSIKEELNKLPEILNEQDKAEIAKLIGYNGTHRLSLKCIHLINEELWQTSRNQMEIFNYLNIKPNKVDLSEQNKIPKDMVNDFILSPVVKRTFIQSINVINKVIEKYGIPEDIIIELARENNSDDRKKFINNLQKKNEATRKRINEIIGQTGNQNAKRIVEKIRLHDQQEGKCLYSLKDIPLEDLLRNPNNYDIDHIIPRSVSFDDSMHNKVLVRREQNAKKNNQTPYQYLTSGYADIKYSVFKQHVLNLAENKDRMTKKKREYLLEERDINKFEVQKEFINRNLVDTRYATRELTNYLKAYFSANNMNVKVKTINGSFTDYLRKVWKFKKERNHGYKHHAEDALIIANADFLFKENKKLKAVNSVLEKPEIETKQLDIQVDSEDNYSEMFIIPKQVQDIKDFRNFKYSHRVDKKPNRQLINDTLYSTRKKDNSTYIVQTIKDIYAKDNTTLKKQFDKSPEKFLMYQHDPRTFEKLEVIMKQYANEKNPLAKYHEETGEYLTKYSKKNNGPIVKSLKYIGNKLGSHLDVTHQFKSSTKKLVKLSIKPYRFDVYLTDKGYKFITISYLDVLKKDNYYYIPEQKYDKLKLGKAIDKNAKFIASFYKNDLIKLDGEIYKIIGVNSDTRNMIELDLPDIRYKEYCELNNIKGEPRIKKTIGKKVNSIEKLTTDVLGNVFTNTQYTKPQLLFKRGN
Experimental: as §1, §2

F8 sRGN = target: T3, F8 sRGN (synthetic (Staphylococcus Cas9 chimera)); experiment: FP; cleavage; 5 mM MgCl2, 37 C
T3 chain: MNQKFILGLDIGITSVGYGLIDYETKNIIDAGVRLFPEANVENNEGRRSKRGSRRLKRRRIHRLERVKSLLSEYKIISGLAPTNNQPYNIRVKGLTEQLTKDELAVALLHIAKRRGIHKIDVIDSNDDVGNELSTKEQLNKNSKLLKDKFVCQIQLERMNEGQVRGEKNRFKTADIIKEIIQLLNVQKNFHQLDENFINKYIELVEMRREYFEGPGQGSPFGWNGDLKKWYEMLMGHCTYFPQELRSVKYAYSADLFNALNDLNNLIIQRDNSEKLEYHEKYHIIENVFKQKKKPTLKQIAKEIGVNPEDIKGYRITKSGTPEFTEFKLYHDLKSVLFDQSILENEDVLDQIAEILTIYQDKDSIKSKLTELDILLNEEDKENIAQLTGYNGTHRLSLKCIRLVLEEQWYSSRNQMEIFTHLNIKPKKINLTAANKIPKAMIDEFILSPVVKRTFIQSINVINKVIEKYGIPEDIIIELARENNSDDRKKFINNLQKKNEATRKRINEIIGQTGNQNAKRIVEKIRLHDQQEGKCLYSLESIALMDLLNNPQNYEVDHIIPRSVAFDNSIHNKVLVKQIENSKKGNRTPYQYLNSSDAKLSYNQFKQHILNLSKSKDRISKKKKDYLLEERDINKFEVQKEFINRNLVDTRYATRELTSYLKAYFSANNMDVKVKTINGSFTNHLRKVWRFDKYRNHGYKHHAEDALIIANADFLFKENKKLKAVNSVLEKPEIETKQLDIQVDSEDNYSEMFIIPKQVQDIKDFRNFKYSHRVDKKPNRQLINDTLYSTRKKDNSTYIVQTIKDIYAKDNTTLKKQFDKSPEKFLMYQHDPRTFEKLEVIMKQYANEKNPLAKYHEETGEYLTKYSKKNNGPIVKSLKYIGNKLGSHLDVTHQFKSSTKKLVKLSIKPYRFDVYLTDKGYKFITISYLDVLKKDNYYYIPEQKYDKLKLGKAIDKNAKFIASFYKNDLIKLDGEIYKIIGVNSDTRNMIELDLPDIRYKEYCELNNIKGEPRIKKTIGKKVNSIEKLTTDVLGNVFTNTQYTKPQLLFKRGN
Experimental: as §1, §2

Gib11Spa-1 sRGN = target: T4, Gib11Spa-1 sRGN (synthetic (Staphylococcus Cas9 chimera)); experiment: FP; cleavage; 5 mM MgCl2, 37 C; PAM GGGG on substrate
T4 chain: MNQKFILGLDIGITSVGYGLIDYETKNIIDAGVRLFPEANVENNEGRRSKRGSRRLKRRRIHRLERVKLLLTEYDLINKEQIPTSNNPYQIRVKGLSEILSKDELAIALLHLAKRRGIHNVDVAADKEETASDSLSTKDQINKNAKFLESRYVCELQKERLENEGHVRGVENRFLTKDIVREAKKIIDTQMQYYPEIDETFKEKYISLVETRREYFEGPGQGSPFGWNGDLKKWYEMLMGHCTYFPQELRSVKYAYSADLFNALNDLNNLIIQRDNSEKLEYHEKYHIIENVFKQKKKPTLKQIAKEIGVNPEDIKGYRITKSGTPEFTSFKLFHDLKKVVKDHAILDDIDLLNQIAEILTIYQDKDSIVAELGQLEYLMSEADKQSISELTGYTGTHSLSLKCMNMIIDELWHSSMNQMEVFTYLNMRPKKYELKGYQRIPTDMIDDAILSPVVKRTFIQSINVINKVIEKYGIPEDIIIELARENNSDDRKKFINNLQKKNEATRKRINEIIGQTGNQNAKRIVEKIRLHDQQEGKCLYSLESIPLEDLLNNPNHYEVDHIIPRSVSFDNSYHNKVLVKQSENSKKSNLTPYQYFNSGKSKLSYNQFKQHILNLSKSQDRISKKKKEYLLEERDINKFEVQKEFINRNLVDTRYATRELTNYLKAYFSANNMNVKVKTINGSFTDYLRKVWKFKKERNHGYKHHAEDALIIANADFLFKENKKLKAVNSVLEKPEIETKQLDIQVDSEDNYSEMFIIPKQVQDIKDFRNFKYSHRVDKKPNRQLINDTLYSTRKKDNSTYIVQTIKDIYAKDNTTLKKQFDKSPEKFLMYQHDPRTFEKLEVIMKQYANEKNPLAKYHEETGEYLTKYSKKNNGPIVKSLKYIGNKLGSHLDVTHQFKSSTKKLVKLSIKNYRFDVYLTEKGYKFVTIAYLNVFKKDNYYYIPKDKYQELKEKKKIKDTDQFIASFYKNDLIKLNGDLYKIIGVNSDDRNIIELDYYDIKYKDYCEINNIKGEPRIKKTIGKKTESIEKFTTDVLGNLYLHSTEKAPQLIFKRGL
Experimental: as §1, §2

Gib11Spa-3 sRGN = target: T5, Gib11Spa-3 sRGN (synthetic (Staphylococcus Cas9 chimera)); experiment: as above
T5 chain: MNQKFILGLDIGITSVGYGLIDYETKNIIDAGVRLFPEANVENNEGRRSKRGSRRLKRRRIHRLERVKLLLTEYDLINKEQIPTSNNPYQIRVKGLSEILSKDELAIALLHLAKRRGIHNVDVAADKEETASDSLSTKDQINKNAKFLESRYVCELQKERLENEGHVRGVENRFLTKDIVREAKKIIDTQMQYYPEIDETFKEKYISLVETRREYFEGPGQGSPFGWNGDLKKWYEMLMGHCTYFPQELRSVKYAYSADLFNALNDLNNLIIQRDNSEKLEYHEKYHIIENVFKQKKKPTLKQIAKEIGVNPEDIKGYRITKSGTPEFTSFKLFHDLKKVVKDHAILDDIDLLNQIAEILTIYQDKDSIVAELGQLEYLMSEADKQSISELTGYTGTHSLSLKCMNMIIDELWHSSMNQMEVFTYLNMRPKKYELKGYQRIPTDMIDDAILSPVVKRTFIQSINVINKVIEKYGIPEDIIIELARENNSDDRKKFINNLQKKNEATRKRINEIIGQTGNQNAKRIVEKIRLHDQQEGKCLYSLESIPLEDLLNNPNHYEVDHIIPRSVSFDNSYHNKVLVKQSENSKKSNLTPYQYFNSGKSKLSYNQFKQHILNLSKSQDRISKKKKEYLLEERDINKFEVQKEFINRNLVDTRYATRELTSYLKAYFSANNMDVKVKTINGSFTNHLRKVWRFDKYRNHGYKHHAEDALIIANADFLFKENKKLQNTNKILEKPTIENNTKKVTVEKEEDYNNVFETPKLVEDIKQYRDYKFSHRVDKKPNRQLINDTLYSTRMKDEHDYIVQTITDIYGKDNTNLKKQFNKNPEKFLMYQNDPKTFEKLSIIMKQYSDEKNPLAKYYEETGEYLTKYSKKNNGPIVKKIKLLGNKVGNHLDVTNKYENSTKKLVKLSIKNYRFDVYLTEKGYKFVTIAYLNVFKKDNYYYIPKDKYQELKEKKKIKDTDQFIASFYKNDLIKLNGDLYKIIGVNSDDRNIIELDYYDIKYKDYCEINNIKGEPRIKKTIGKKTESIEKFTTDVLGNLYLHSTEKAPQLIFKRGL
Experimental: as §1, §2

Measured: binding result

B1: sgRNA_Ex6 ; R01-1 on-target duplex (ssRNA ; dsDNA)
RNA: GGUGAACGUGGAUGAAGUUGGUUUUAGUACUCUGGAAACAGAAUCUACUGAAACAAGACAAUAUGUCGUGUUUAUCCCAUCAAUUUAUUGGUGGGAUUUUUUUCUAGCAUAACCCCUUGGGGCCUCUAAACGGGUCUUGAGGGGUUUUUU
DNA 1: GGTGAACGTGGATGAAGTTGTGGGGTAC
DNA 2: GCGGTACCCCACAACTTCATCCACGTTCACCGG
binds: all assays above
